Measurements from US20240261423A1.

Molecular target: Insulin
Assay: low stringency direct binding ELISA on coated insulin, antibody dilutions from 10 µg/mL

Chain of Insulin (P01308 25-54, chain 1 of 2): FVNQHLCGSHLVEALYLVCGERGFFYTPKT
Chain of Insulin (P01308 90-110, chain 2 of 2): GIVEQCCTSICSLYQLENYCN

| Substance | Polyreactivity Score |
| --- | --- |
| Negative Control (polyreactivity assay) (antibody) | 5.03 |
| Positive Control (polyreactivity assay) (antibody) | 12.2 |
